Reference: patent US20080311034A1 (published 2008)

Key:
[1] = biological target: FcγRIIIa on NK cells of human PBMC (human, UniProt P08637 17-254); assay: cell-based or functional assay
[2] = biological target: T1, recombinant human His-tagged FcγRIIIa (extracellular domain made at Centocor) (human, UniProt P08637 17-208); assay: ELISA, His-tagged FcγRIIIa captured on HisGrab plate
T1 construct: extracellular domain; also called CD16a; recombinant, soluble, human FcγRIIIa
Description: (§1) FcγRIIIa (CD16a) ELISA—A human FcγRIIIa binding assay was done in ELISA format similar to the assay for FcγRI above. 50 μl of a 2 μg/ml solution of recombinant human His-tagged FcγRIIIa (extracellular domain made at Centocor) in ELISA buffer (PBS, 4 mg/ml BSA, 0.01% Tween-20) was added to each well of HisGrab 96 well plates (Pierce #15142) (Powers G., Notebook 10378, 19-23). The plate was incubated for 3 hours at room temp. The plates were blocked with 200 μl of Starting Block (Pierce #15142) for 30 min, and then washed 3× with 300 μl of wash buffer (PBS, 0.01% Tween-20) on a plate washer. Serial dilutions of the CNTO 860 test samples were made in Starting Block buffer and 50 μl per well of each titration were added in duplicate to the FcγRIIIa-coated plates. The plates were incubated for 1 hour. The plates were washed 3× with 300 μl of wash buffer on a plate washer. 50 μl of a 1:10,000 dilution of HRP-labeled goat F(ab′)2 anti-human IgG F(ab′)2 (Jackson Immunoresearch # 109-036-097) in Starting Block buffer was added to each well. The plates were incubated for 30 minutes. The plates were washed 3× with 300 μl of wash buffer on the plate washer. 50 μl per well TMB substrate (RDI #RDI-TMBSU-1L) was added to each well and developed for 3-5 minutes. The reaction was stopped by adding 100 μl 10.2 N sulfuric acid. The plates were read at OD450 on an Envision plate reader. Antibody concentration vs OD450 values were graphed for each CNTO 860 variant and the antibody concentration needed to achieve an OD450 reading of 0.14 established by interpolation within each data curve.

[3] = biological target: T2, recombinant polyhistidine tagged mouse FcγRI (R&D Systems) (mouse, UniProt P26151 25-297); assay: ELISA, His-tagged mouse receptor captured on copper-coated plate
T2 construct: Bought; also called murine FcγRI
T2 sequence (looked up): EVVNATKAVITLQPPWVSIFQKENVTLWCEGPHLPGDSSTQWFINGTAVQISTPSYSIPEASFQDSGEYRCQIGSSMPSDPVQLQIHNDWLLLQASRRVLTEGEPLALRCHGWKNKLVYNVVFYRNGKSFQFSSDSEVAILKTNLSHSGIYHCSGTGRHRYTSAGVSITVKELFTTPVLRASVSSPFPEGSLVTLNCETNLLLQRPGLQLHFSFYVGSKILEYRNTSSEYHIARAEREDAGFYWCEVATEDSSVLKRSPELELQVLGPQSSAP
Description: (§2) Commercially-available recombinant polyhistidine tagged mouse FcγRI, FcγRII, FcγRIII, and FcγRIV (R&D Systems) were diluted to 1 μg/ml in PBS and 100 μl/well was captured onto copper-coated plates (Pierce) overnight at 4° C. Plates were washed three times with wash buffer (0.15M NaCl, 0.02% Tween 20). Non-specific binding was blocked using 200 μl/well SuperBlock (Pierce) for 15 minutes at room temperature. Plates were washed three times as above. […] Plates were washed three times as above to remove unbound mAb. CNTO 860 variants that bound to plated receptors were detected using 100 μl/well HRP-labeled goat F(ab′)₂ anti-human IgG F(ab′)₂ (Jackson ImmunoResearch) diluted 1:5,000 in PBS incubated at room temperature for 1 hour. Plates were washed five times using wash buffer as above, and developed using 100 μl/well TMB Stable Stop substrate (Fitzgerald Industries) stopped with 0.5M HCl. Absorbance was detected at 450 nm.
(§3) All binding assays were in an ELISA format, with recombinant soluble receptor captured on coated EIA plates.

[4] = biological target: T3, recombinant polyhistidine tagged mouse FcγRII (R&D Systems) (mouse, UniProt P08101 40-217, limits assumed); assay: as above
T3 construct: Bought; also called FcRII
T3 sequence (looked up): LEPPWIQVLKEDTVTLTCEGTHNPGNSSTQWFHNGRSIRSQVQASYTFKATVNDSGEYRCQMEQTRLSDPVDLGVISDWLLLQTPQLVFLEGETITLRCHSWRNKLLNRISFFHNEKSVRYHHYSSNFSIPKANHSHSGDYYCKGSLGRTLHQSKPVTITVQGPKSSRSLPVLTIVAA
Description: as §2, §3

[5] = biological target: T4, recombinant polyhistidine tagged mouse FcγRIII (R&D Systems) (mouse, UniProt P08508 31-215); assay: as above
T4 construct: Bought
T4 sequence (looked up): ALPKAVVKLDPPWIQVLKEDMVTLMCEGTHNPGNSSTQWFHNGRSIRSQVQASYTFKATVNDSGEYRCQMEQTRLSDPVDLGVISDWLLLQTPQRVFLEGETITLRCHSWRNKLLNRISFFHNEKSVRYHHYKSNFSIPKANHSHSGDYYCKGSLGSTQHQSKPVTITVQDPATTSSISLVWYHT
Description: as §2, §3

[6] = biological target: T5, recombinant polyhistidine tagged mouse FcγRIV (R&D Systems) (mouse, UniProt A0A0B4J1G0 21-203); assay: as above
T5 construct: Bought
T5 sequence: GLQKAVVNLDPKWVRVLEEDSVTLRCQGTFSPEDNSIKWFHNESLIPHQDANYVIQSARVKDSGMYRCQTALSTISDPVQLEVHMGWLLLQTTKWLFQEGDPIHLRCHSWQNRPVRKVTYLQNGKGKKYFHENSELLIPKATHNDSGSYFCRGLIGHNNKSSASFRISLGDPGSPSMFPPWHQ
Description: as §2, §3

[7] = biological target: T6, recombinant human His-tagged FcγRI (extracellular domain, R&D Systems #1257-FC-050) (human, UniProt P12314 16-292); assay: ELISA
T6 construct: extracellular domain; Bought; also called CD64; recombinant, soluble, human FcγRI
Description: FcγRI (CD64) ELISA —50 μl of a 1 μg/ml solution of recombinant human His-tagged FcγRI (extracellular domain, R&D Systems #1257-FC-050) in ELISA buffer (PBS, pH 7.4, 4 mg/ml BSA, 0.01% Tween-20) was added to each well of HisGrab 96 well plates (Pierce #15142) (Powers G., Notebook 9006, pp. 166-168, 180-181). The plate was incubated with shaking for 3 hours. The plates were washed 3× with 300 μl of wash buffer (PBS, 0.01% Tween-20) on a plate washer. Serial dilutions of the CNTO860 antibody Fc-variant samples were made in ELISA buffer and 50 μl per well of each titration were added in duplicate to the FcγRI-coated plates. The plates were incubated with shaking for 1 hour. The plates were washed 3× with 300 μl of wash buffer on a plate washer. 50 μl of a 1:10,000 dilution of HRP-labeled goat F(ab′)₂ anti-human IgG F(ab′)₂ (Jackson Immunoresearch # 109-036-097) in ELISA buffer was added to each well. The plates were incubated with shaking for 30 minutes. The plates were washed 3× with 300 μl of wash buffer on the plate washer. 50 μl per well TMB substrate (RDI #RDI-TMBSU-1L) was added to each well and developed for 5 minutes. The reaction was stopped by adding 100 μl 0.2 N sulfuric acid. The plates were read at OD450 on an Envision plate reader.
as §1, with “minutes.” for “minutes. The plates were washed 3× with 300 μl of wash buffer on the plate washer. 50 μl per well TMB substrate (RDI #RDI-TMBSU-1L) was added to each well and developed for 3-5 minutes. The reaction was stopped by adding 100 μl 10.2 N sulfuric acid. The plates were read at OD450 on an Envision plate reader. Antibody concentration vs OD450 values were graphed for each CNTO 860 variant and the antibody concentration needed to achieve an OD450 reading of 0.14 established by interpolation within each data curve.”

[8] = biological target: T7, recombinant human FcγRIIb (R&D Systems #1875-CD-050) (human, UniProt P31994 46-217, limits assumed); assay: AlphaScreen
T7 construct: Bought; also called CD32b; recombinant, soluble, human FcγRIIb
T7 sequence (looked up): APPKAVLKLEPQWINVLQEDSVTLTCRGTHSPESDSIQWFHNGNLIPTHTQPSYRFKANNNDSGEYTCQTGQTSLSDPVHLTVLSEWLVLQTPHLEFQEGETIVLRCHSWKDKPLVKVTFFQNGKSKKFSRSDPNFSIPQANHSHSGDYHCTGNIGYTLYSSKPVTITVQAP
Description: FcγRIIa (CD32a) AlphaScreen—Nickel acceptor beads (Perkin Elmer #6760619C) were diluted 1:50 in assay buffer (PBS, pH 7.4, 4 mg/ml BSA, 0.01% Tween-20), and 27.5 μl were added to each well of a Nunc V-bottom polypropylene plate (VWR # 62409-108) (Powers G., Notebook 9006, pp. 169-175, 182-185). A 2.0 μg/ml solution of recombinant human His-tagged FcγRIIa (R&D Systems #1330-CD-050) was prepared in assay buffer and 27.5 μl added to each well of a separate Nunc V bottom polypropylene plate. Titrations of test Abs were prepared in the Nunc V bottom polypropylene plate starting at 30 μg/ml. A 2 μg/ml solution of biotinylated goat F(ab′)₂ anti-human IgG F(ab′)₂ (Jackson Immunoresearch #109-066-097) was prepared in assay buffer and 27.5 μl added to each well of another Nunc V bottom polypropylene plate. A 1:50 dilution of streptavidin donor beads (PerkinElmer # 6760002) was prepared in assay buffer and 27.5 μl added to each well of another Nunc V bottom polypropylene plate. A volume of 5 μl of each reagent was added to the corresponding quadrants of a low-volume, non-binding white 384-well plate (Corning # 3673) in the following order: acceptor beads, FcγRIIa, test Ab, biotinylated anti-human IgG F(ab′)₂, and streptavidin donor beads. The plates were incubated for 30 minutes with shaking and the O.D.s determined using an Envision plate reader.
FcγRIIb (CD32b) AlphaScreen—The assay was performed as described above for FcγRIIa except that FcγRIIa was replaced with FcγRIIb (R&D Systems #1875-CD-050).

T1 sequence (P08637 17-208): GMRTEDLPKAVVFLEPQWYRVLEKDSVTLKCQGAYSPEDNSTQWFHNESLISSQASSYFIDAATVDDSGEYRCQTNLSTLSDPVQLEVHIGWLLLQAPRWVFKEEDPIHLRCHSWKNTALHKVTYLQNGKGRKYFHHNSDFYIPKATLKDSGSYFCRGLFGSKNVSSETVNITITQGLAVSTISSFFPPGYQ
FcγRIIIa on NK cells of human PBMC, sequence (P08637 17-254): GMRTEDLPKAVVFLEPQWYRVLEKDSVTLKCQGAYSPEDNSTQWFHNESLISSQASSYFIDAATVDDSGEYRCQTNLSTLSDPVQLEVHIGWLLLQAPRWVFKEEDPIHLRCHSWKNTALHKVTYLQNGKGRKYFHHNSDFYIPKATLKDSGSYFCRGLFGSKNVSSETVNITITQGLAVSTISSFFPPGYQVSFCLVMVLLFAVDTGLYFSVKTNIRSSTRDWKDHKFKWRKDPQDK
T6 sequence (P12314 16-292): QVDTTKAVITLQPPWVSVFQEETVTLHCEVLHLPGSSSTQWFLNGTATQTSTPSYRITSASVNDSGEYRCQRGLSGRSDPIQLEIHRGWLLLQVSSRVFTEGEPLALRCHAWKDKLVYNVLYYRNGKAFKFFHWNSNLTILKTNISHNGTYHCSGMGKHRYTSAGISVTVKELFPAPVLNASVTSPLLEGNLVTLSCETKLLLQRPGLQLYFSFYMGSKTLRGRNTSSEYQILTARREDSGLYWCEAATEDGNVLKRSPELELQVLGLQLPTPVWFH

B1: CHO-CNTO 860 I332E/V264I (antibody, human IgG1, kappa)
heavy: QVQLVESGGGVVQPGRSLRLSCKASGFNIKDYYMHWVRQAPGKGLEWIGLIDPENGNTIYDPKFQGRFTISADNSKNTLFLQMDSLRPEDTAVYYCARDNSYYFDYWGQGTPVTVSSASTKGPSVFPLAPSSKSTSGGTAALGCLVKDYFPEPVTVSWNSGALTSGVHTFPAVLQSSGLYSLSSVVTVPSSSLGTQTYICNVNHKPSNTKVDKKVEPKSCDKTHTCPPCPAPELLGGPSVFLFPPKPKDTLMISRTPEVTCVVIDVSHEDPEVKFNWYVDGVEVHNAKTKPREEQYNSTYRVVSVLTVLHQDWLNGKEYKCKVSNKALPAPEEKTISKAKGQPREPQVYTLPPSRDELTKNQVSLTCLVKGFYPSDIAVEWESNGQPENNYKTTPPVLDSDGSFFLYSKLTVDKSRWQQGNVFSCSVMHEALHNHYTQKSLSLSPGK
light: DIQMTQSPSSLSASVGDRVTITCKASQDIRKYLNWYQQKPGKAPKLLIYYATSLADGVPSRFSGSGSGTDYTFTISSLQPEDIATYYCLQHGESPYTFGQGTKLEITRTVAAPSVFIFPPSDEQLKSGTASVVCLLNNFYPREAKVQWKVDNALQSGNSQESVTEQDSKDSTYSLSSTLTLSKADYEKHKVYACEVTHQGLSSPVTKSFNRGEC
modifications: Heavy chain N297 carries the CHO-type N-linked glycan (about 95% fucosylated); not carried by the letters.
notes: IgG1/kappa Fc variant; transiently expressed in CHO cells (p4187/p4146); EU numbering; also called V264I/I332E (CHO cell-derived); copies: 2 + 2
In the case of B1, the “EC25 (ng/ml), ADCC of HCT116 cells by human PBMC” value [1] is reported as 1 ng/mL, the “concentration (ng/ml) required for an O.D. value of 0.14” value [2] is reported as 900 ng/mL and the “ECOD1 (concentration required for an O.D. value of 1.0)” value (shortened to “ECOD1”) [3] is reported as 25800 ng/mL. For the same binder, the “ECOD1” value [4] was 1700 ng/mL, the “ECOD1” value [5] was 2000 ng/mL and the “ECOD1” value [6] was 8 ng/mL.

B2: CNTO 860 I332E (antibody)
heavy: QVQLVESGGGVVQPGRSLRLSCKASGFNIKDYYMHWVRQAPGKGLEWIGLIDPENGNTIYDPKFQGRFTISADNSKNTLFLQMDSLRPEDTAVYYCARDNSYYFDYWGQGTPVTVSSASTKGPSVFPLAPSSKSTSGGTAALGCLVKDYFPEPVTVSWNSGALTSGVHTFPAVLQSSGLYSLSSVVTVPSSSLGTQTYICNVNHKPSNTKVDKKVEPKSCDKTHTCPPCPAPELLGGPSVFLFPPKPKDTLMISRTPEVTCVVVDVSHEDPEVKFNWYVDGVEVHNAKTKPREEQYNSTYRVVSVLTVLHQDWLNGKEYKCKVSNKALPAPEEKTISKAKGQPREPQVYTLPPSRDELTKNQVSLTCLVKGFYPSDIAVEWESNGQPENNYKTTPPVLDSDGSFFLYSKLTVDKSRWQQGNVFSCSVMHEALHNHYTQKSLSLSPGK
light: DIQMTQSPSSLSASVGDRVTITCKASQDIRKYLNWYQQKPGKAPKLLIYYATSLADGVPSRFSGSGSGTDYTFTISSLQPEDIATYYCLQHGESPYTFGQGTKLEITRTVAAPSVFIFPPSDEQLKSGTASVVCLLNNFYPREAKVQWKVDNALQSGNSQESVTEQDSKDSTYSLSSTLTLSKADYEKHKVYACEVTHQGLSSPVTKSFNRGEC
modifications: N-linked glycan at heavy chain Asn297 (host cell not specified in these sentences); not carried by the letters
notes: also called I332E variant; I332E single mutant; copies: 2 + 2
With B2 the “fold change in binding against WT (enhanced)” value [7] was 2 fold.

B3: CNTO 860 S239D/I332E (antibody, human IgG1, kappa)
heavy: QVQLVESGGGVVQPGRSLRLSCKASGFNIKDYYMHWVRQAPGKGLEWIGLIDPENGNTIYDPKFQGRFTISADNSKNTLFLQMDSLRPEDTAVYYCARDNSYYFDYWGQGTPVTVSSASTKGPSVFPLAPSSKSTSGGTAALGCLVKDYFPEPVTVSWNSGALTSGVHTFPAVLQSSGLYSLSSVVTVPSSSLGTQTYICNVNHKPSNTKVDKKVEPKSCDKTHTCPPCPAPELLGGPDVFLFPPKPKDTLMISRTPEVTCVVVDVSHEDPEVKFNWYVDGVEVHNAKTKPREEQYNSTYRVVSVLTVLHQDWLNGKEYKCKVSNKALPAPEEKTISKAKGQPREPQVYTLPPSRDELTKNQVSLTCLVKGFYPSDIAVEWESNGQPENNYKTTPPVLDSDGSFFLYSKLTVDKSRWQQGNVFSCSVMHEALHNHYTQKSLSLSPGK
light: DIQMTQSPSSLSASVGDRVTITCKASQDIRKYLNWYQQKPGKAPKLLIYYATSLADGVPSRFSGSGSGTDYTFTISSLQPEDIATYYCLQHGESPYTFGQGTKLEITRTVAAPSVFIFPPSDEQLKSGTASVVCLLNNFYPREAKVQWKVDNALQSGNSQESVTEQDSKDSTYSLSSTLTLSKADYEKHKVYACEVTHQGLSSPVTKSFNRGEC
modifications: N-linked glycan at Asn297 of the heavy chain (fucose content depends on host cell, CHO or YB2/0); not carried by the letters
notes: also called S239D/I332E double mutant; copies: 2 + 2
In the case of B3, the “fold change in binding against WT (enhanced)” value [8] is reported as ~6 fold.

B4: CNTO 860 A330I (antibody)
heavy: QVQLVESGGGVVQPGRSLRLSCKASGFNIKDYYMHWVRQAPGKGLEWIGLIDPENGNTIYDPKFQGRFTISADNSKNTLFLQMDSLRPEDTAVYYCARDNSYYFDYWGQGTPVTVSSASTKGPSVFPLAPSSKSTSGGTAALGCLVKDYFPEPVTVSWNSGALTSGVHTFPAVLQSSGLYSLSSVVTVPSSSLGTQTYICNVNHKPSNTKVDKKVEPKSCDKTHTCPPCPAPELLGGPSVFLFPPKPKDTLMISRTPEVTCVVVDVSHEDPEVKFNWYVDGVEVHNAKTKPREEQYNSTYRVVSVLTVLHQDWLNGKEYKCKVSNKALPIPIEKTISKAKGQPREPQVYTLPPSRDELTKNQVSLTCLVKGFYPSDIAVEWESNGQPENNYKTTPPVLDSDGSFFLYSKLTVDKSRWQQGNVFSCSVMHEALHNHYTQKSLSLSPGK
light: DIQMTQSPSSLSASVGDRVTITCKASQDIRKYLNWYQQKPGKAPKLLIYYATSLADGVPSRFSGSGSGTDYTFTISSLQPEDIATYYCLQHGESPYTFGQGTKLEITRTVAAPSVFIFPPSDEQLKSGTASVVCLLNNFYPREAKVQWKVDNALQSGNSQESVTEQDSKDSTYSLSSTLTLSKADYEKHKVYACEVTHQGLSSPVTKSFNRGEC
modifications: N-linked glycan at Asn297 of the heavy chain (fucose content depends on host cell, CHO or YB2/0); not carried by the letters
notes: also called A330I variant; A330I single mutant; copies: 2 + 2
With B4 the “fold change in binding against WT (reduced)” value [8] was 500 fold.
